Laboratory results from patent US8461305B2, “L-fucose α1→6 specific lectin” (J-Oil Mills, Inc., priority 2008, dated 2013).

B1: Lens culinaris agglutinin (protein)
chain 1: TETTSFSITKFSPDQKNLIFQGDGYTTKGKLTLTKAVKSTVGRALYSTPIHIWDRDTGNVANFVTSFTFVIDAPSSYNVADEFTFFIAPVDTKPQTGGGYLGVFNSKEYDKTSQTVAVEFDTFYNAAWDPSNKERHIGIDVNSIKSVNTKSWNLQNGERANVVIAFNAATNVLTVTLTYP
chain 2: VTSYTLNEVVPLKDVVPEWVRIGFSATTGAEFAAHEVHSWSFHSELGGTSSS
B2: Pisum sativum agglutinin (protein)
chain: TETTSFLITKFSPDQQNLIFQGDGYTTKEKLTLTKAVKNTVGRALYSSPIHIWDRETGNVANFVTSFTFVINAPNSYNVADGFTFFIAPVDTKPQTGGGYLGVFNSAEYDKTTQTVAVEFDTFYNAAWDPSNRDRHIGIDVNSIKSVNTKSWKLQNGEEANVVIAFNAATNVLTVSLTYPNSLEEENVTSYTLSDVVSLKDVVPEWVRIGFSATTGAEYAAHEVLSWSFHSELSGTSSSKQAADA

Tests used:
[1] = frontal affinity chromatography (FAC), association constant to PA sugar chains having other L-fucose; format: binding; details: 25 degrees C.
Procedure: (§1) The following section will describe a method of calculating an association constant by frontal affinity chromatography (FAC). This method is based on the following principle. […] Then, the elution front end (front) is observed immediately. When there is an affinity with lectin, the elution of the sugar chain is delayed.
(§2) The preparation of a lectin column used in the apparatus is performed in the method as described below. 1. Purified lectin is dissolved in 0.1 to 0.2M of NaHCO3 buffer solution (pH 8.3 to 8.5). 2. The lectin is immobilized, via a lectin primary amino group, a carrier such as NHS activated sepharose. 3. Then, the lectin is blocked by Tris buffer solution including primary amine or ethanolamine for example. 4. Lectin-sepharose is suspended in 10 mM Tris buffer, including 0.8% of NaCl (pH 7.4, TBS). Then, lectin immobilized resin is filled in a miniature column (φ2 mm×10 mm, 31.4 μl). 5. The miniature column in which the lectin immobilized resin is filled is protected by a holder and the lectin column is connected to an FAC automatic analysis apparatus (FAC-1, SHIMADZU CORPORATION).
(§3) Then, the elution of the PA sugar chain from the column is detected by a fluorescence detector (excitation wavelength/fluorescence wavelength: 310 nm/380 nm).
(§4) Based on the detection data, by using the elution front end (Vo) of the sugar chain (PA rhamnose) not interacting with lectin as a reference, the delay (V−Vo) of the elution front end (V) of a sugar chain interacting with lectin is calculated as an interaction strength. Then, based on the following FAC criteria expressions, the association constant (Ka) between the sugar chain and lectin is calculated based on V−Vo and Bt. If the interaction strength (V−Vo value) and the association constant are higher, a higher affinity is caused between lectin and an L-fucose α1→6 sugar chain.
(§5) [In the formula, A means substance used for the elution, Ao means the initial concentration of the substance A, B means a immobilized ligand, V means the elution volume, Vo means the elution front end volume of the substance not interacting with the immobilized ligand B at all, Bt means an effective ligand amount, Kd means a dissociation constant (an inverse of the association constant)].
(§6) Pyridylaminated (PA) sugar chains shown in FIG. 1 and FIG. 2 were used to frontal affinity chromatography (FAC) analysis. PA sugars were purchased from TAKARA BIO INC., SEIKAGAKU BIOBUSINESS CORPORATION, and Masuda Chemical Industries co., LTD. PA sugar were also obtained by pyridylaminating, by GlycoTAG®(TAKARA BIO INC.), an unlabeled sugar chain or a sugar chain obtained by subjecting a sugar chain to enzyme digestion for example.
(§7) Lectin was dissolved in 0.2 M NaHCO3 buffer solution (pH 8.3) including 0.5 M NaCl and coupled to the NHS-activated sepharose (GE Healthcare Bioscience) by following the manufacturer's instructions. Then, lectin immobilized sepharose was suspended in 10 mM Tris buffer (pH 7.4, TBS) including […] and the resultant matter was filled in a miniature column (φ2 mm×10 mm, 31.4 μl).
(§8) Frontal affinity chromatography was performed using FAC automatic analysis apparatus (FAC-1, SHIMADZU CORPORATION). In particular, the above-prepared lectin column was inserted to a stainless steel holder and the holder was connected to FAC-1 apparatus. The flow rate and the column temperature were maintained at 0.125 ml/min and 25 degrees C., respectively. After the miniature column was equilibrated by the TBS, an excessive volume (0.5 ml to 4 ml) of a PA sugar chain (3.75 nM or 7.5 nM) was continuously inputted to the column using an automatic sampling apparatus.
(§9) The fluorescent strength of the eluate of the PA sugar (excitation wavelength of 310 nm and fluorescence wavelength of 380 nm) was monitored to measure the interaction strength [a difference of the front end eluate to the standard oligosaccharide (PA rhamnose): V−V0]. […]

[2] = frontal affinity chromatography (FAC), association constant to PA sugar chains having α1→6 L-fucose; format: binding; details: 25 degrees C.
Procedure: as §1, §2, §3, §4, §5, §6, §7, §8, §9

[3] = Sugar chain No. 728 (as listed in Table 5/12)

Molecule	association constant Ka ([1]; Sugar chain No. 419) [M⁻¹]	association constant Ka ([1]; Sugar chain No. 420) [M⁻¹]	association constant Ka ([1]; Sugar chain No. 718) [M⁻¹]	association constant Ka ([1]; Sugar chain No. 719) [M⁻¹]	association constant Ka ([1]; Sugar chain No. 720) [M⁻¹]	association constant Ka ([1]; Sugar chain No. 721) [M⁻¹]	association constant Ka ([1]; Sugar chain No. 722) [M⁻¹]	association constant Ka ([1]; Sugar chain No. 723) [M⁻¹]	association constant Ka ([1]; Sugar chain No. 726) [M⁻¹]	association constant Ka ([1]; Sugar chain No. 727) [M⁻¹]	association constant Ka [1, 3] [M⁻¹]	association constant Ka ([1]; Sugar chain No. 729) [M⁻¹]	association constant Ka ([1]; Sugar chain No. 730) [M⁻¹]	association constant Ka ([1]; Sugar chain No. 731) [M⁻¹]	association constant Ka ([1]; Sugar chain No. 739) [M⁻¹]	association constant Ka ([1]; Sugar chain No. 909) [M⁻¹]	association constant Ka ([1]; Sugar chain No. 910) [M⁻¹]	association constant Ka ([1]; Sugar chain No. 931) [M⁻¹]	association constant Ka ([1]; Sugar chain No. 932) [M⁻¹]	association constant Ka ([1]; Sugar chain No. 933) [M⁻¹]	other results
B1	<1000	<1000	<1000	<1000	<1000	<1000	<1000	<1000	<1000	<1000	<1000	<1000	<1000	<1000	<1000	<1000	<1000	<1000	<1000	<1000	association constant Ka ([2]; Sugar chain No. 015): 56000 M⁻¹; association constant Ka ([2]; Sugar chain No. 201): 500000 M⁻¹; association constant Ka ([2]; Sugar chain No. 202): 110000 M⁻¹; association constant Ka ([2]; Sugar chain No. 203): 73000 M⁻¹; association constant Ka ([2]; Sugar chain No. 401): 42000 M⁻¹; association constant Ka ([2]; Sugar chain No. 402): 59000 M⁻¹; association constant Ka ([2]; Sugar chain No. 403): 99000 M⁻¹; association constant Ka ([2]; Sugar chain No. 404): 58000 M⁻¹; association constant Ka ([2]; Sugar chain No. 405): 47000 M⁻¹; association constant Ka ([2]; Sugar chain No. 406): 18000 M⁻¹; association constant Ka ([2]; Sugar chain No. 407): 1000 M⁻¹; association constant Ka ([2]; Sugar chain No. 410): <1000 M⁻¹; association constant Ka ([2]; Sugar chain No. 413): <1000 M⁻¹; association constant Ka ([2]; Sugar chain No. 418): <1000 M⁻¹; association constant Ka ([2]; Sugar chain No. 601): 30000 M⁻¹; association constant Ka ([2]; Sugar chain No. 602): 24000 M⁻¹
B2	<1000	<1000	<1000	<1000	<1000	<1000	<1000	<1000	<1000	<1000	<1000	<1000	<1000	<1000	<1000	<1000	<1000	<1000	<1000	<1000	association constant Ka ([2]; Sugar chain No. 015): 120000 M⁻¹; association constant Ka ([2]; Sugar chain No. 201): 100000 M⁻¹; association constant Ka ([2]; Sugar chain No. 202): 44000 M⁻¹; association constant Ka ([2]; Sugar chain No. 203): 25000 M⁻¹; association constant Ka ([2]; Sugar chain No. 401): 92000 M⁻¹; association constant Ka ([2]; Sugar chain No. 402): 48000 M⁻¹; association constant Ka ([2]; Sugar chain No. 403): 38000 M⁻¹; association constant Ka ([2]; Sugar chain No. 404): 45000 M⁻¹; association constant Ka ([2]; Sugar chain No. 405): 36000 M⁻¹; association constant Ka ([2]; Sugar chain No. 406): 13000 M⁻¹; association constant Ka ([2]; Sugar chain No. 407): <1000 M⁻¹; association constant Ka ([2]; Sugar chain No. 410): <1000 M⁻¹; association constant Ka ([2]; Sugar chain No. 413): <1000 M⁻¹; association constant Ka ([2]; Sugar chain No. 418): <1000 M⁻¹; association constant Ka ([2]; Sugar chain No. 601): 31000 M⁻¹; association constant Ka ([2]; Sugar chain No. 602): 29000 M⁻¹
